Measured values from patent US20260193313A1 (ALPINE IMMUNE SCIENCES, published 2026).
Values belong to the molecule of their own block, whether it stands above or below them.

Experiments:
CTLA-4 [1] = biological target: T1, CTLA-4 (human, UniProt P16410 36-223); test: flow cytometry, 11 nM Fc fusion on CHO/CTLA4 transfectants
T1 construct: CHO cells transduced to stably express CTLA-4; also called huCTLA; CHO/CTLA-4
T1 sequence: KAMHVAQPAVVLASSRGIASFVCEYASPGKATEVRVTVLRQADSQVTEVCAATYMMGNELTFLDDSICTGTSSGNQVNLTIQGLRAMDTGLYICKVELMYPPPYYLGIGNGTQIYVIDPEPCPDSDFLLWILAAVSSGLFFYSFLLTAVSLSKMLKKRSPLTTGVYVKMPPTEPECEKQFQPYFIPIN

CD28 [2] = biological target: T2, CD28 (human, UniProt P10747 19-220); test: flow cytometry, 11 nM Fc fusion on Jurkat cells
PD-L1 = biological target: T3, PD-L1 (human, UniProt Q9NZQ7 19-290); test: flow cytometry, K562 cells transduced to express PDL1, anti-Fc antibody-PE
T3 construct: also called huPD-L1
Method: (§1) To assess binding activity, the exemplary formatted stack constructs were incubated with Jurkat cells expressing CD28, the cognate binding partner of CD86, and with K562 cells transduced to express PDL1, the cognate binding partner of PD-1. The cells (50,000 cells/well) were incubated on ice for 30 min with the formatted stack constructs set forth in Table E7 at various concentrations (starting concentration 100 nM, 8 serial 1:4 dilutions titrated down). Cells were then washed with FACS buffer and resuspended with 50 μL anti-Fc antibody-PE for 30 min. Binding was assessed by flow cytometry and Mean Fluorescence Intensity (MFI) was determined.

CD28 [3] = biological target: T2, CD28; test: flow cytometry, Jurkat cells expressing CD28, anti-Fc antibody-PE
Method: as §1

CD28 [4] = biological target: T2, CD28; test: flow cytometry, 25 nM Fc fusion on Jurkat cells
Method: (§2) Binding of the CD86 domain variants described above were assayed for binding to CD28 using Jurkat cells or to CTLA-4 using Chinese Hamster Ovary (CHO) cells that were transduced to stably express CTLA-4 (CHO/CTLA-4). For staining by flow cytometry, approximately 100,000 ligand-expressing cells were incubated with various concentrations of each candidate CD86 variant Fc fusion protein. […] To assess binding, cells were stained with an anti-human Fc secondary antibody (Jackson ImmunoResearch, USA), and samples were analyzed on an LSRII (BD Biosciences, Inc., USA) flow cytometer.
(§3) In the Table, the exemplary amino acid substitutions and insertions in the IgV domain are designated by amino acid position number corresponding to amino acid positions in the respective reference unmodified mature CD86 extracellular domain (ECD) sequence set forth in SEQ ID NO:29. The amino acid position is indicated in the middle, with the corresponding unmodified (e.g. wild-type) amino acid listed before the number and the identified variant amino acid substitution listed after the number. Column 2 sets forth the SEQ ID NO identifier for each variant IgV domain contained in the variant IgV-Fc fusion molecule.

CTLA-4 [5] = biological target: T1, CTLA-4; test: flow cytometry, 25 nM Fc fusion on CHO/CTLA4 transfectants
Method: as §2, §3

CD28 [6] = biological target: T2, CD28; test: cell-based or functional assay

T2 sequence (P10747 19-220): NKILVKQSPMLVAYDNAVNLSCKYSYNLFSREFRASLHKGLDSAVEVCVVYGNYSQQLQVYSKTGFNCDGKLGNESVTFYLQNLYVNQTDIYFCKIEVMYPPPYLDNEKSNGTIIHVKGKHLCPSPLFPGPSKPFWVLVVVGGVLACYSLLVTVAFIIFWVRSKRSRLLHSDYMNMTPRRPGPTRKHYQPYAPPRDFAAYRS
T3 sequence (Q9NZQ7 19-290): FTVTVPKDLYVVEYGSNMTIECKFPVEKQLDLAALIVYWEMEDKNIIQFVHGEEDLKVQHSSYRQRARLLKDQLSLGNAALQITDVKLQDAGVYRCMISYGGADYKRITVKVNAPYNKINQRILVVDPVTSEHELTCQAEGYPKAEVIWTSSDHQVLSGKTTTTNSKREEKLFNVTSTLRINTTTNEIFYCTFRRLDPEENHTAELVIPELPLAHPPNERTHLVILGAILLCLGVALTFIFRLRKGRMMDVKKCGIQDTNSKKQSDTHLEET

B1: formatted PD-1-CD86 stack, FIG. 14A format, SEQ ID NO: 326 homodimer (Fc fusion)
chain: DSPDRPWNPPTFSPALLVVTEGDNATFTCSFSNTSESFVLNWYRMSPSNQTDKLAAFPEDRNQPGQDRRFRVTQLPNGRDYHMSVDRARRNDSGTYLCGAITLAPKVQIDESLRVELRVTERGSGGGGSEPKSSDKTHTCPPCPAPEAEGAPSVFLFPPKPKDTLMISRTPEVTCVVVDVSHEDPEVKFNWYVDGVEVHNAKTKPREEQYNSTYRVVSVLTVLHQDWLNGKEYKCKVSNKALPAPIEKTISKAKGQPREPQVYTLPPSRDELTKNQVSLTCLVKGFYPSDIAVEWESNGQPENNYKTTPPVLDSDGSFFLYSKLTVDKSRWQQGNVFSCSVMHEALHNHYTQKSLSLSPGGGGGSGGGGSGGGGSGGGGSAPLKIQAYFNETADLPCQFANSQNLSLSELVVFWQDQENLVLNEVYLGKEKFDSVHSKYMGRTSFDSDSWTLRLHNLQIKDKGLYRCIILHKKPTGMIRIHQMSSELSVLANFSQPEIVPISNITENVYINLTCSSIHGYPEPKKMSVLLRTKNSTIEYDGVMQKSQDNVTELYDVSISLSVSFPDVTSNMTIFCILETDKTRLLSSPFSIELEDPQPPPDHIP
notes: also called variant PD1 ECD - Fc - variant CD86 ECD
binding result (PD-L1): binds | binding result (CD28 [3]): binds

B3: formatted PD-1-CD86 stack, FIG. 14D format (heterodimer SEQ ID NOs 328 + 331) (Fc fusion)
chain 1: DSPDRPWNPPTFSPALLVVTEGDNATFTCSFSNTSESFVLNWYRMSPSNQTDKLAAFPEDRNQPGQDRRFRVTQLPNGRDYHMSVDRARRNDSGTYLCGAITLAPKVQIDESLRVELRVTERGSGGGGSEPKSSDKTHTCPPCPAPEAEGAPSVFLFPPKPKDTLMISRTPEVTCVVVDVSHEDPEVKFNWYVDGVEVHNAKTKPREEQYNSTYRVVSVLTVLHQDWLNGKEYKCKVSNKALPAPIEKTISKAKGQPREPQVYTLPPCREEMTKNQVSLWCLVKGFYPSDIAVEWESNGQPENNYKTTPPVLDSDGSFFLYSKLTVDKSRWQQGNVFSCSVMHEALHNHYTQKSLSLSPG
chain 2: DSPDRPWNPPTFSPALLVVTEGDNATFTCSFSNTSESFVLNWYRMSPSNQTDKLAAFPEDRNQPGQDRRFRVTQLPNGRDYHMSVDRARRNDSGTYLCGAITLAPKVQIDESLRVELRVTERGSGGGGSEPKSSDKTHTCPPCPAPEAEGAPSVFLFPPKPKDTLMISRTPEVTCVVVDVSHEDPEVKFNWYVDGVEVHNAKTKPREEQYNSTYRVVSVLTVLHQDWLNGKEYKCKVSNKALPAPIEKTISKAKGQPREPQVCTLPPSREEMTKNQVSLSCAVKGFYPSDIAVEWESNGQPENNYKTTPPVLDSDGSFFLVSKLTVDKSRWQQGNVFSCSVMHEALHNHYTQKSLSLSPGGGGGSGGGGSGGGGSGGGGSAPLKIQAYFNETADLPCQFANSQNLSLSELVVFWQDQENLVLNEVYLGKEKFDSVHSKYMGRTSFDSDSWTLRLHNLQIKDKGLYRCIILHKKPTGMIRIHQMSSELSVLA
notes: Knobs-into-hole heterodimer
binding result (PD-L1): binds | binding result (CD28 [3]): binds

B4: variant CD86 IgV-Fc M60K/H90L (IgV SEQ ID NO: 128) (Fc fusion)
chain: APLKIQAYFNETADLPCQFANSQNQSLSELVVFWQDQENLVLNEVYLGKEKFDSVHSKYKGRTSFDSDSWTLRLHNLQIKDKGLYQCIILHKKPTGMIRIHQMNSELSVLAGSGGGGSEPKSSDKTHTCPPCPAPEAEGAPSVFLFPPKPKDTLMISRTPEVTCVVVDVSHEDPEVKFNWYVDGVEVHNAKTKPREEQYNSTYRVVSVLTVLHQDWLNGKEYKCKVSNKALPAPIEKTISKAKGQPREPQVYTLPPSRDELTKNQVSLTCLVKGFYPSDIAVEWESNGQPENNYKTTPPVLDSDGSFFLYSKLTVDKSRWQQGNVFSCSVMHEALHNHYTQKSLSLSPG
MFI (CD28 [4]): 20

Second part, the molecule after the results:

Fold Increase over WT CD86 ECD (CTLA-4 [1]): 0.5 fold | MFI (CTLA-4 [1]): 9360 | MFI (CD28 [2]): 11.9
Molecule: variant CD86 ECD-Fc Q25L/H90L/P185S/P224L (ECD SEQ ID NO: 116) (Fc fusion)

binding result (PD-L1): binds | binding result (CD28 [3]): binds
B2: formatted PD-1-CD86 stack, FIG. 14A format, SEQ ID NO: 327 homodimer (Fc fusion)
chain: DSPDRPWNPPTFSPALLVVTEGDNATFTCSFSNTSESFVLNWYRMSPSNQTDKLAAFPEDRNQPGQDRRFRVTQLPNGRDYHMSVDRARRNDSGTYLCGAITLAPKVQIDESLRVELRVTERGSGGGGSEPKSSDKTHTCPPCPAPEAEGAPSVFLFPPKPKDTLMISRTPEVTCVVVDVSHEDPEVKFNWYVDGVEVHNAKTKPREEQYNSTYRVVSVLTVLHQDWLNGKEYKCKVSNKALPAPIEKTISKAKGQPREPQVYTLPPSRDELTKNQVSLTCLVKGFYPSDIAVEWESNGQPENNYKTTPPVLDSDGSFFLYSKLTVDKSRWQQGNVFSCSVMHEALHNHYTQKSLSLSPGGGGGSGGGGSGGGGSGGGGSAPLKIQAYFNETADLPCQFANSQNLSLSELVVFWQDQENLVLNEVYLGKEKFDSVHSKYMGRTSFDSDSWTLRLHNLQIKDKGLYRCIILHKKPTGMIRIHQMSSELSVLA
notes: also called variant PD1 ECD - Fc - variant CD86 IgV

Fold Increase over WT CD86 ECD (CTLA-4 [5]): 1.3 fold | MFI (CTLA-4 [5]): 4940 | Fold Increase over WT CD86 ECD, Jurkat/IL2 Luciferase Assay (10 nM OKT3 + 50 nM CD86 IgV-Fc) (CD28 [6]): 6.1 fold | Relative luminescence units (RLU), Jurkat/IL2 Luciferase Assay (10 nM OKT3 + 50 nM CD86 IgV-Fc) (CD28 [6]): 800 RLU | Fold Increase over WT CD86 ECD (CD28 [4]): 128 fold | MFI (CD28 [4]): 1570
B5: variant CD86 IgV-Fc Q25L/Q86R/H90L (IgV SEQ ID NO: 126) (Fc fusion)
chain: APLKIQAYFNETADLPCQFANSQNLSLSELVVFWQDQENLVLNEVYLGKEKFDSVHSKYMGRTSFDSDSWTLRLHNLQIKDKGLYRCIILHKKPTGMIRIHQMNSELSVLAGSGGGGSEPKSSDKTHTCPPCPAPEAEGAPSVFLFPPKPKDTLMISRTPEVTCVVVDVSHEDPEVKFNWYVDGVEVHNAKTKPREEQYNSTYRVVSVLTVLHQDWLNGKEYKCKVSNKALPAPIEKTISKAKGQPREPQVYTLPPSRDELTKNQVSLTCLVKGFYPSDIAVEWESNGQPENNYKTTPPVLDSDGSFFLYSKLTVDKSRWQQGNVFSCSVMHEALHNHYTQKSLSLSPG

binding result (PD-L1): binds | binding result (CD28 [3]): binds
B6: formatted PD-1-CD86 stack, FIG. 14C format (heterodimer SEQ ID NOs 328 + 330) (Fc fusion)
chain 1: DSPDRPWNPPTFSPALLVVTEGDNATFTCSFSNTSESFVLNWYRMSPSNQTDKLAAFPEDRNQPGQDRRFRVTQLPNGRDYHMSVDRARRNDSGTYLCGAITLAPKVQIDESLRVELRVTERGSGGGGSEPKSSDKTHTCPPCPAPEAEGAPSVFLFPPKPKDTLMISRTPEVTCVVVDVSHEDPEVKFNWYVDGVEVHNAKTKPREEQYNSTYRVVSVLTVLHQDWLNGKEYKCKVSNKALPAPIEKTISKAKGQPREPQVYTLPPCREEMTKNQVSLWCLVKGFYPSDIAVEWESNGQPENNYKTTPPVLDSDGSFFLYSKLTVDKSRWQQGNVFSCSVMHEALHNHYTQKSLSLSPG
chain 2: EPKSSDKTHTCPPCPAPEAEGAPSVFLFPPKPKDTLMISRTPEVTCVVVDVSHEDPEVKFNWYVDGVEVHNAKTKPREEQYNSTYRVVSVLTVLHQDWLNGKEYKCKVSNKALPAPIEKTISKAKGQPREPQVCTLPPSREEMTKNQVSLSCAVKGFYPSDIAVEWESNGQPENNYKTTPPVLDSDGSFFLVSKLTVDKSRWQQGNVFSCSVMHEALHNHYTQKSLSLSPGGGGGSGGGGSGGGGSGGGGSAPLKIQAYFNETADLPCQFANSQNLSLSELVVFWQDQENLVLNEVYLGKEKFDSVHSKYMGRTSFDSDSWTLRLHNLQIKDKGLYRCIILHKKPTGMIRIHQMSSELSVLA
notes: Knobs-into-hole heterodimer
